This is an account of results in US20260265385A1, “CD122 BINDING AGENTS AND METHOD OF USING SAME” (AnaptysBio, Inc., priority 2022, published 2026).

Experiment [1] deals with human IL-2Rβ (CD122), full-length, on cells (human) (UniProt P14784). Kind of experiment: flow cytometry competition: antibody titrated against recombinant IL-2 (5 nM) binding to HEK293 cells expressing human IL-2Rβ and IL-2Rγ.
The target is the same in experiment [2]. Nature of the experiment: flow cytometry competition: antibody titrated against recombinant IL-15 (2 nM) binding to HEK293 cells expressing human IL-2Rβ and IL-2Rγ. A general note: Flow cytometry measures light scatter and fluorescence of single cells or particles in a stream.

human IL-2Rβ (CD122), full-length, on cells (human), sequence (P14784 27-551): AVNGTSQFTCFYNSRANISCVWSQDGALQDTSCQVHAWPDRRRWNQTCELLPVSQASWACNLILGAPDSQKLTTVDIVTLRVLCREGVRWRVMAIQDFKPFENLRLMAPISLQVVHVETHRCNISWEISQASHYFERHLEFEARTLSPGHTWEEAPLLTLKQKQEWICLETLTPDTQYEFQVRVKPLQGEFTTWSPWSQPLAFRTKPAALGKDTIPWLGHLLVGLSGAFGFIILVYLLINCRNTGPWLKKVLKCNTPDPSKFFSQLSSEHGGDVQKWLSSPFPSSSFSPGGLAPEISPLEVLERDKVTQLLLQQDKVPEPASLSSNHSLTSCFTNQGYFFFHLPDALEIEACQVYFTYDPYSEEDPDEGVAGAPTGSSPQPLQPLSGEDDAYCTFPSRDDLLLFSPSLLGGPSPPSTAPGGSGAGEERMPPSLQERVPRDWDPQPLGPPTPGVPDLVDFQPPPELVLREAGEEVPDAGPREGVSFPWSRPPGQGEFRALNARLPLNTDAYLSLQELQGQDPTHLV

B1: APE14773.01 (anti-CD122 control ref ABC2) (antibody, from another filing, V domains shown)
VH: EVKLVESGGGLVQPGGSLRLSCATSGFTFSDFYMEWVRQPPGKRLEWIAASRNKANDYTTEYSASVKGRFIVSRDTSQSILYLQMNALRAEDTAIYYCARSYYRYDGMDYWGQGTSVTVSS
VL: QVVLTQSPVIMSASPGEKVTMTCSAISSVSYMYWYQQKPGSSPRLLIYDTSNLVSGVPVRFSGSGSGTSYSLTISRMEAEDAATYYCQQWNTYPYTFGGGTKLEIK
Take B1: the IC50 (read off the curve) in experiment [1] was found to be 1 nM; in experiment [2], 0.9 nM.
